B1: POU domain class 2-associating factor 1 (Homo sapiens), Q16633 (parent)
chain: MLWQKPTAPEQAPAPARPYQGVRVKEPVKELLRRKRGHASSGAAPAPTAVVLPHQPLATYTTVGPSCLDMEGSVSAVTEEAALCAGWLSQPTPATLQPLAPWTPYTEYVPHEAVSCPYSADMYVQPVCPSYTVVGPSSVLTYASPPLITNVTTRSSATPAVGPPLEGPEHQAPLTYFPWPQPLSTLPTSTLQYQPPAPALPGPQFVQLPISIPEPVLQDMEDPRRAASSLTIDKLLLEEEDSDAYALNHTLSVEGF
partner: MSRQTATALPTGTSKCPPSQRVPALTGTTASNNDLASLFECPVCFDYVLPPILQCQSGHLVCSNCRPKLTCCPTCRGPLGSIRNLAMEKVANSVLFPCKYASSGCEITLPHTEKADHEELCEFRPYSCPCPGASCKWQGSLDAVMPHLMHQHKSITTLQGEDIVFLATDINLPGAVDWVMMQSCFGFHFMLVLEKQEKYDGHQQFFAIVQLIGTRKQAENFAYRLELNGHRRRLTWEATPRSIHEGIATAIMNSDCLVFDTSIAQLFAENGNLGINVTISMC

Variants of: B1
Conditions: with siah1_human SIAH1, Q8IUQ4

| effect of a mutation on the interaction | Variant |
| --- | --- |
| disrupting interaction | V51E |
